Measurements from US9051364B2, “Composition for producing anti-amyloid beta peptide antibodies with D-peptides” (FORSCHUNGSZENTRUM JUELICH GMBH, priority 2008, dated 2015).
Where no end group is shown, it is not given here. [ ]: non-standard residue; d: D form.

Biological target: T1, amyloid beta peptide (Homo sapiens, UniProt P05067)
T1 construct: tested for the recognition of both the D3 peptide and the amyloid beta peptide in a standard ELISA
Assay: Immunization of mice with D-peptides
Assay type: in vivo
Conditions: D3 covalently bonded to KLH, booster injections
Experimental: Mice were immunized with D-peptides. Use was made of the D3 peptide and also a retro-inverse peptide of the amyloid beta peptide (riAbeta1-16; retro-inverso-Abeta(1-16)). After multiple booster injections (booster effect), fusion to generate monoclonal antibodies was carried out according to standard methods. It was possible to isolate monoclonal antibodies which bind to D3, riAbetal-16, and to the amyloid beta peptide. The immunization with the mentioned D-peptides thus leads to a protective immune response against the amyloid beta peptide. D3 was covalently bonded (crosslinking) to KLH (keyhole limpet hemocyanin) and immunized mice with standard procedures. These were then fused with mouse myeloma cells according to standard protocols. The cell culture supernatant of the resulting hybridoma cells were then tested for the recognition of both the D3 peptide and the amyloid beta peptide in a standard ELISA.

T1 sequence (P05067 672-713 limits assumed): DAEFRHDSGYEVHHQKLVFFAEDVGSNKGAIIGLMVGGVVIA

In the case of “rprtr lhthr nr ([dR][dP][dR][dT][dR][dL][dH][dT][dH][dR][dN][dR]; also: conjugated to KLH) [D3, D-peptide used as immunogen, covalently bonded to KLH]”, the “antibody response against the amyloid beta peptide after immunization” value is reported as “results in an antibody response against the amyloid beta peptide”.
